Measured values as given in patent publication US20240270860A1.

Tests used:
[1] = target: T1, …2RPGWY2; assay: peptide-array ELISA (CYS.S) [Continued]
T1 sequence (peptide, 2 = Cys(ACM)): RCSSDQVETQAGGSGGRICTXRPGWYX

[2] = target: T2, EGCRL2…; assay: peptide-array ELISA (CYS.S) [Continued]
T2 sequence (peptide, 2 = Cys(ACM)): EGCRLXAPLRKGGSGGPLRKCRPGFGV

[3] = target: T3, WY2…; assay: peptide-array ELISA (CYS.S) [Continued]
T3 sequence (peptide, 2 = Cys(ACM)): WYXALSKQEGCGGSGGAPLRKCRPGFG

[4] = target: T4, …2…2RPG; assay: peptide-array ELISA (CYS.S)
T4 sequence (peptide, 2 = Cys(ACM)): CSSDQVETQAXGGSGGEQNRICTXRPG

[5] = target: T5, LS2…2RPG; assay: peptide-array ELISA (CYS.S)
T5 sequence (peptide, 2 = Cys(ACM)): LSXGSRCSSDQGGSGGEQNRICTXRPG

[6] = target: T6, PE2LS2…2RPGW; assay: peptide-array ELISA (CYS.S)
T6 sequence (peptide, 2 = Cys(ACM)): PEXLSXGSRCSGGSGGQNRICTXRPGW

[7] = target: T7, E2LS2…2RP; assay: peptide-array ELISA (CYS.S)
T7 sequence (peptide, 2 = Cys(ACM)): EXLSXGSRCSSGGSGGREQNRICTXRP

[8] = target: T8, …2RPGW; assay: peptide-array ELISA (CYS.S)
T8 sequence (peptide, 2 = Cys(ACM)): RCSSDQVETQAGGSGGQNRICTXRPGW

[9] = target: T9, …2RPG; assay: peptide-array ELISA (CYS.S)
T9 sequence (peptide, 2 = Cys(ACM)): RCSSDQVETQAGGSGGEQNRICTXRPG

[10] = target: T10, …2RP; assay: peptide-array ELISA (CYS.S)
T10 sequence (peptide, 2 = Cys(ACM)): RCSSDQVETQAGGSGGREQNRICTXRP

[11] = target: T11, PE2LS2…2RP; assay: peptide-array ELISA (CYS.S)
T11 sequence (peptide, 2 = Cys(ACM)): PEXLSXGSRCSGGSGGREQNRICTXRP

[12] = target: T12, 2…2RP; assay: peptide-array ELISA (CYS.S)
T12 sequence (peptide, 2 = Cys(ACM)): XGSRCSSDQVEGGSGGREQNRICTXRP

[13] = target: T13, E2LS2…2RPG; assay: peptide-array ELISA (CYS.S)
T13 sequence (peptide, 2 = Cys(ACM)): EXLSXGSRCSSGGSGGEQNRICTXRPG

[14] = target: T14, VPE2LS2…2RP; assay: peptide-array ELISA (CYS.S)
T14 sequence (peptide, 2 = Cys(ACM)): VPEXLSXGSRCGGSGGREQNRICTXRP

[15] = target: T15, 2…2RPGW; assay: peptide-array ELISA (CYS.S)
T15 sequence (peptide, 2 = Cys(ACM)): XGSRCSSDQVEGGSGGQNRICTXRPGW

[16] = target: T16, S2…2RP; assay: peptide-array ELISA (CYS.S)
T16 sequence (peptide, 2 = Cys(ACM)): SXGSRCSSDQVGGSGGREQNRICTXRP

[17] = target: T17, …2…2R; assay: peptide-array ELISA (CYS.S)
T17 sequence (peptide, 2 = Cys(ACM)): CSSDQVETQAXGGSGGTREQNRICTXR

[18] = target: T18, 2LS2…2RPGW; assay: peptide-array ELISA (CYS.S)
T18 sequence (peptide, 2 = Cys(ACM)): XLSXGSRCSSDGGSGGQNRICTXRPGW

[19] = target: T19, 2LS2…2RP; assay: peptide-array ELISA (CYS.S)
T19 sequence (peptide, 2 = Cys(ACM)): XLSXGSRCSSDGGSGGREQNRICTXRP

[20] = target: T20, …2RPGW; assay: peptide-array ELISA (CYS.S); remark: listed apart in the source
T20 sequence (peptide, 2 = Cys(ACM)): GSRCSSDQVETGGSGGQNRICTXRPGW

[21] = target: T21, S2…2RPGW; assay: peptide-array ELISA (CYS.S)
T21 sequence (peptide, 2 = Cys(ACM)): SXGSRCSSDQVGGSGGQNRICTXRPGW

[22] = target: T22, …2R; assay: peptide-array ELISA (CYS.S)
T22 sequence (peptide, 2 = Cys(ACM)): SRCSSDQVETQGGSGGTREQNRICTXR

[23] = target: T23, …2RPG; assay: peptide-array ELISA (CYS.S); remark: listed apart in the source
T23 sequence (peptide, 2 = Cys(ACM)): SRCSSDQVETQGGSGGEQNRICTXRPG

[24] = target: T24, …2…2RP; assay: peptide-array ELISA (CYS.S)
T24 sequence (peptide, 2 = Cys(ACM)): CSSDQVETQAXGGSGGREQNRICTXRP

[25] = target: T25, LS2…2RPGW; assay: peptide-array ELISA (CYS.S)
T25 sequence (peptide, 2 = Cys(ACM)): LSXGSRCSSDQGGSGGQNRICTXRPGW

[26] = target: T26, …2RPGW; assay: peptide-array ELISA (CYS.S); remark: listed apart in the source
T26 sequence (peptide, 2 = Cys(ACM)): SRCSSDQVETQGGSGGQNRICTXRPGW

[27] = target: T27, E2LS2…2RPGW; assay: peptide-array ELISA (CYS.S)
T27 sequence (peptide, 2 = Cys(ACM)): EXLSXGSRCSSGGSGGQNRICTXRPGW

[28] = target: T28, PE2LS2…2RPG; assay: peptide-array ELISA (CYS.S)
T28 sequence (peptide, 2 = Cys(ACM)): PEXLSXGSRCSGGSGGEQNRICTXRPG

[29] = target: T29, LS2…2RP; assay: peptide-array ELISA (CYS.S)
T29 sequence (peptide, 2 = Cys(ACM)): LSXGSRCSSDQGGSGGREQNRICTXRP

[30] = target: T30, …2R; assay: peptide-array ELISA (CYS.S); remark: listed apart in the source
T30 sequence (peptide, 2 = Cys(ACM)): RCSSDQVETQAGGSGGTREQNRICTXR

[31] = target: T31, …2…2RPGW; assay: peptide-array ELISA (CYS.S)
T31 sequence (peptide, 2 = Cys(ACM)): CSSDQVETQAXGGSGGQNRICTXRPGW

[32] = target: T32, VPE2LS2…2RPG; assay: peptide-array ELISA (CYS.S)
T32 sequence (peptide, 2 = Cys(ACM)): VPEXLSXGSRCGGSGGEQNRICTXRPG

[33] = target: T33, 2LS2…2RPG; assay: peptide-array ELISA (CYS.S)
T33 sequence (peptide, 2 = Cys(ACM)): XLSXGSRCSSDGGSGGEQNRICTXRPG

[34] = target: T34, …2RPG; assay: peptide-array ELISA (CYS.S); remark: listed apart in the source
T34 sequence (peptide, 2 = Cys(ACM)): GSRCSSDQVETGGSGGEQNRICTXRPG

[35] = target: T35, S2…2RPG; assay: peptide-array ELISA (CYS.S)
T35 sequence (peptide, 2 = Cys(ACM)): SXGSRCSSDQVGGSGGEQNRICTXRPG

[36] = target: T36, 2…2RPG; assay: peptide-array ELISA (CYS.S)
T36 sequence (peptide, 2 = Cys(ACM)): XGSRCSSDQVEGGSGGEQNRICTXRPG

[37] = target: T37, …2RP; assay: peptide-array ELISA (CYS.S); remark: listed apart in the source
T37 sequence (peptide, 2 = Cys(ACM)): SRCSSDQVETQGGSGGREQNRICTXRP

[38] = target: T38, VPE2LS2…2RPGW; assay: peptide-array ELISA (CYS.S)
T38 sequence (peptide, 2 = Cys(ACM)): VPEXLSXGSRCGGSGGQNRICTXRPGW

[39] = target: T39, …2RP; assay: peptide-array ELISA (CYS.S); remark: listed apart in the source
T39 sequence (peptide, 2 = Cys(ACM)): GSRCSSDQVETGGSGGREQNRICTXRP

B1: antagonistic TNFR2 antibody TNFRAB1 (antibody, V domains shown)
VH: EVQLQESGGGLVKPGGSLKLSCAASGFTFSSYVMSWVRQTPEKRLEWVATISSGGSYTYYPDSVKGRFTISRDNAKNTLYLQMSSLRSEDTAMYYCARQRVDGYSSYWYFDVWGAGTAVTVSS
VL: DIVLTQSPAIMSASPGEKVTITCSASSSVYYMYWFQQKPGTSPKLWIYSTSNLASGVPVRFSGSGSGTSYSLTISRMEAEDAATYYCQQRRNYPYTFGGGTKLEIKR
Raw luminescence data [1]: 543
Raw luminescence data [2]: 450
Raw luminescence data [3]: 534
Raw luminescence data [4]: 248
Raw luminescence data [5]: 244
Raw luminescence data [6]: 543
Raw luminescence data [7]: 323
Raw luminescence data [8]: 507
Raw luminescence data [9]: 183
Raw luminescence data [10]: 130
Raw luminescence data [11]: 291
Raw luminescence data [12]: 228
Raw luminescence data [13]: 152
Raw luminescence data [14]: 318
Raw luminescence data [15]: 493
Raw luminescence data [16]: 247
Raw luminescence data [17]: 179
Raw luminescence data [18]: 345
Raw luminescence data [19]: 262
Raw luminescence data [20]: 466
Raw luminescence data [21]: 364
Raw luminescence data [22]: 177
Raw luminescence data [23]: 222
Raw luminescence data [24]: 250
Raw luminescence data [25]: 291
Raw luminescence data [26]: 402
Raw luminescence data [27]: 482
Raw luminescence data [28]: 229
Raw luminescence data [29]: 261
Raw luminescence data [30]: 125
Raw luminescence data [31]: 493
Raw luminescence data [32]: 225
Raw luminescence data [33]: 214
Raw luminescence data [34]: 202
Raw luminescence data [35]: 235
Raw luminescence data [36]: 221
Raw luminescence data [37]: 157
Raw luminescence data [38]: 577
Raw luminescence data [39]: 166
